Measurements reported in paper PMC11869522, “Competitive displacement of lipoprotein lipase from heparan sulfate is orchestrated by a disordered acidic cluster in GPIHBP1” (Journal of Lipid Research, 2025).
Where no end group is shown, it is not given here. The star is where a group is joined. sulfate = O=S(=O)(O)*

Legend:
bLPL = assay: Lipase activity assay, protection against spontaneous LPL inactivation; type: biochemical, bovine; settings: 15 nM bLPL preincubated 20 min at 22°C with 1 μM synthetic peptide; Intralipid substrate, NEFA release 25 min; triplicates
Protocol: To determine lipase activity, 90 μl incubation mixture containing 166 mM NaCl, 28 U/ml heparin, 10% (w/v) fatty acid-free serum albumin, 250 mM Tris-HCl (pH 8.5), 0.16% intralipid, and 6% (v/v) chicken serum was mixed with 60 μl of sample buffer consisting of 150 mM NaCl, 0.1% (w/v) fatty acid-free serum albumin, 0.01% (v/v) Triton X-100, 10 mM HEPES (pH 7.4) and 15 nM bLPL. After 25 min incubation, non-esterified fatty acids (NEFA) released by LPL were quantified using the NEFA-HR kit according to manufacturer protocol (Wako Chemicals).
To address this question, we preincubated 15 nM purified bLPL for 20 min in the presence of 1 μM of synthetic peptides with different chain lengths and covering distinct regions of the first 33 residues in GPIHBP1 (supplemental Table S1). The residual bLPL activity was subsequently assessed by quantifying the release of non-esterified free fatty acids after a 25-min incubation with a lipid substrate emulsion (Intralipid) using the NEFA2-kit. […]
Fig. 2 LPL activity after incubation with synthetic peptides covering the acidic tail of GPIHBP^1–33 Purified bLPL (15 nM) was preincubated either alone or in the presence of 1 μM synthetic peptides or 150 nM GPIHBP1 for 20 min in 10 mM HEPES, 150 mM NaCl pH 7.4 at 22°C before LPL activity was assessed using Intralipid® as substrate. […]

[1] = test system: hLPL bound to immobilized heparan sulfate; assay: GPIHBP1-mediated extraction of LPL from HSPGs (SPR, immobilized heparin dp4 fragments); type: binding, human; settings: 12.5–200 nM GPIHBP1 proteins, 0.1–1.6 μM sulfated GPIHBP1^1–33, or GPIHBP1^34–131 with 1 μM sulfated GPIHBP1^1–33
Excerpt: To mimic electrostatic conditions found in the sub-endothelial spaces where surface-bound heparan-sulfate proteoglycans (HSPGs) are abundant, we designed a surrogate sensor surface using a streptavidin-coated CM5 sensor chip to capture high densities of biotinylated synthetic heparin dp4 fragments ([28], [29]). The reference surface was loaded with a neutral and non-sulfated fragment (M09 S00 from Iduron), while the active surface was loaded with a negatively charged fragment (M09 S08a from Iduron) containing N- and O-6-linked sulfations on each of the […] glucosamine residues in the DP4 fragment. Only the highly sulfated oligosaccharide bound LPL, and those interactions were transient with high off-rates. Despite the very transient nature of this binding, we created a stable reservoir of hLPL on the sensor surface by combining the fast kinetics of polyelectrolyte interactions with severe mass transport limitation—the latter phenomenon impedes LPL escape from the surface due to the fast rebinding that is favored by the high densities of immobilized heparin fragments (300 fmol/mm^2). For each experiment, 12.5 nM hLPL was loaded for 100 s at a flow rate of 20 μl/min in 10 mM Hepes (pH 7.4), 150 mM NaCl, 4 mM CaCl2, 10% (vol/vol) glycerol, 0.05% (vol/vol) surfactant P20, 1 mg/ml defatted BSA, […], and 0.05% (wt/vol) NaN3.
To compare the ability of GPIHBP1^1–131 and its charge variants to bind and extract hLPL from this dynamic reservoir, we injected twofold serial dilutions of 1.25–200 nM GPIHBP1^1–131; 1.25–200 nM GPIHBP1^Cluster1-neutral; GPIHBP1^Cluster2-neutral; 1.25–200 nM GPIHBP1^34–131; 0.1–1.6 μM GPIHBP1^1–33 with Tyr^18–SO4; or 1.25–200 nM GPIHBP1^34–131 in the presence of 1 μM sulfated GPIHBP1^1–33 for 250 s at 20 μl/min in 10 mM Hepes (pH 7.4), 150 mM NaCl, 4 mM CaCl2, 10% (vol/vol) glycerol, 0.05% (vol/vol) surfactant P20, 0.2 mg/ml fatty acid-free BSA, and 0.05% (wt/vol) NaN3. At the end of each cycle, two consecutive injections of 10 μl 3 M guanidinium chloride regenerated the chip.
GPIHBP1’s ability to displace LPL from its HSPG-bound state in the sub-endothelial spaces is essential for the trans-endothelial trafficking of LPL to the luminal surface of capillary cells ([29]). The importance of the acidic tail in this process is supported by solid evidence from surrogate in vitro models and in vivo studies in gene-edited mice ([28], [29]). It was therefore important to determine the relative impact of the two charge-clusters in GPIHBP1 on their ability to disrupt LPL•HSPG interactions. To gain this insight, we measured the ability of different GPIHBP1 charge variants to displace hLPL from a SPR sensor chip surface coupled with a high density of immobilized small heparin-like fragments ([28]). […]

[2] = biological target: T1, Human LPL (lipoprotein lipase) (human, UniProt P06858 28-475, R324A); assay: cell-based or functional assay
T1 sequence (looked up): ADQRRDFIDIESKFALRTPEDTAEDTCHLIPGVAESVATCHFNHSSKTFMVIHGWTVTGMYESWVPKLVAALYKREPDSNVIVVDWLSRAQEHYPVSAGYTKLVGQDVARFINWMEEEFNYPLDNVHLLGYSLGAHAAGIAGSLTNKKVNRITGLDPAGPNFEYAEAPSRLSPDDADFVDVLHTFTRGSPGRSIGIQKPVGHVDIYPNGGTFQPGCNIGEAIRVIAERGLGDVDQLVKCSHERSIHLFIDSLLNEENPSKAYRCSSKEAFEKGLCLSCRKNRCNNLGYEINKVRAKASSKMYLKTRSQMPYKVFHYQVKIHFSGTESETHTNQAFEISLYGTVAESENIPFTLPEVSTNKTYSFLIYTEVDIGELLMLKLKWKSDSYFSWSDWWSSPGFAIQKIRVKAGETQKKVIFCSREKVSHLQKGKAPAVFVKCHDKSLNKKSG

Bovine LPL = biological target: T2, Bovine LPL (bovine, UniProt P11151 29-478); assay: native gel or EMSA; native PAGE of purified GPIHBP1 charge variants with hLPL, bLPL or mLPL (supplemental Fig. S1); settings: both partners purified
T2 construct: also called bLPL; source: purified from fresh bovine milk
T2 sequence (looked up): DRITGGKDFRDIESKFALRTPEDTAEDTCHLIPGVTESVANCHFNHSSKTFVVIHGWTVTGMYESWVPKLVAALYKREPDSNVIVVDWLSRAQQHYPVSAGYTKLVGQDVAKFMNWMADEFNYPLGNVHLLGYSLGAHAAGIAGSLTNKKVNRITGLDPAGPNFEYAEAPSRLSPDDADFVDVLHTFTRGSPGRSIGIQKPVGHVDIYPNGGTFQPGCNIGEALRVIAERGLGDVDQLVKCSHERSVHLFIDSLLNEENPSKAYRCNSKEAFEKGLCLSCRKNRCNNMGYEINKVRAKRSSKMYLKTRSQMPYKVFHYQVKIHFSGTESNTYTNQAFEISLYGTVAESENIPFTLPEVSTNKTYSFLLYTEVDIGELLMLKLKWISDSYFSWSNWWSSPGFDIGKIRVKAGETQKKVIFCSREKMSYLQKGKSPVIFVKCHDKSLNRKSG

## GPIHBP1^1–33: Synthetic peptide representing the N-terminal acidic tail of GPIHBP1, first 33 residues (QTQQEEEEEDEDHGPDDYDEEDEDEVEEEETNR; UniProt Q8IV16 21-53, looked up, fragment)
bLPL
  preserving bLPL activity against spontaneous inactivation: as efficient as 150 nM GPIHBP1^1–131
[1]
  competitive displacement of HSPG-bound hLPL (in words): neither GPIHBP1^34–131 nor GPIHBP1^1–33 alone, or in combination, induced any detachment of LPL

## sulfated GPIHBP1^1–33: GPIHBP1^1–33 peptide carrying a tyrosyl-sulfation (Tyr^18) (QTQQEEEEEDEDHGPDDY(sulfate)DEEDEDEVEEEETNR; UniProt Q8IV16 21-53, looked up, fragment)
[1]
  competitive displacement of HSPG-bound hLPL (in words): not perturbed

B1: GPIHBP1^1–131/R38G (domain or fragment, human, UniProt Q8IV16 21-151, looked up)
chain: QTQQEEEEEDEDHGPDDYDEEDEDEVEEEETNRLPGGGSRVLLRCYTCKSLPRDERCNLTQNCSHGQTCTTLIAHGNTESGLLTTHSTWCTDSCQPITKTVEGTQVTMTCCQSSLCNVPPWQSSRVQDPTG
modifications: sulfated Tyr18; one bi-antennary N-linked glycosylation
[2]
  reduction in hLPL levels on the heparan sulfate sensor surface after GPIHBP1 injections (12.5–200 nM), SPR: 68.1%

B2: GPIHBP1^Cluster2-neutral (domain or fragment, human, UniProt Q8IV16 21-151, looked up)
chain: QTQQEEEEEDEDHGPDDYNQQNQNQVQQQQTNRLPGGGSRVLLRCYTCKSLPRDERCNLTQNCSHGQTCTTLIAHGNTESGLLTTHSTWCTDSCQPITKTVEGTQVTMTCCQSSLCNVPPWQSSRVQDPTG
modifications: Tyr18 sulfation absent; one bi-antennary N-linked glycosylation
notes: Construct from VectorBuilder Inc; source: Drosophila S2-cells, secreted, purified, D3 tag removed; not shown: uPAR domain III, N-terminal, cleaved
[2]
  reduction in hLPL levels on the heparan sulfate sensor surface after GPIHBP1 injections (12.5–200 nM), SPR: 1.2%
Bovine LPL
  binding result: binds

B3: GPIHBP1^Cluster1-neutral (domain or fragment, human, UniProt Q8IV16 21-151, looked up)
chain: QTQQQQQQQNQNHGPNNYDEEDEDEVEEEETNRLPGGGSRVLLRCYTCKSLPRDERCNLTQNCSHGQTCTTLIAHGNTESGLLTTHSTWCTDSCQPITKTVEGTQVTMTCCQSSLCNVPPWQSSRVQDPTG
modifications: Tyr18 sulfation present in less than 40%; one bi-antennary N-linked glycosylation
notes: as for B2
[2]
  reduction in hLPL levels on the heparan sulfate sensor surface after GPIHBP1 injections (12.5–200 nM), SPR: 34.8%
Bovine LPL
  binding result: binds
